{"source": "patent US20250326839A1", "about": "(VIGIL NEUROSCIENCE, published 2025)", "key": {"human TREM2 [1]": {"target": "T1, human TREM2 (human, UniProt Q9NZC2 19-174, limits assumed)", "T1 construct": "also called triggering receptor expressed on myeloid cells 2", "T1 sequence": "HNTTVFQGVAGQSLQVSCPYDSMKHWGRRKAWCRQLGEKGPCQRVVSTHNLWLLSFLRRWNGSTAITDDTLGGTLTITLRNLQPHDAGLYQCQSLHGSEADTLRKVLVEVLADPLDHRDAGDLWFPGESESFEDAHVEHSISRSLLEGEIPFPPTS", "test": "2nd screen, 2 nM"}, "human TREM2 [2]": {"target": "T1, human TREM2", "test": "2nd screen, 10 nM"}, "human TREM2 [3]": {"target": "T1, human TREM2", "test": "1st screen, 10 nM Ab"}}, "data": [{"binder": "V89 (antibody, V domains shown, also called 6E7 variant V89) VH: EVQLVQSGAEVKKPGESLKISCKGSGYSFTSYWIAWVRQMPGKGLEWMGIIYPGDSDTRYSPSFQGQVTISADKSISTAYLQWSSLKASDTAMYFCARQRTFYYDSSDYFDYWGQGTLVTVSS VL: DIQMTQSPSSVSASVGDRVTITCRASQGISSWLAWYQQKPGKAPKLLIYAASSLQNGVPSRFSGSGSGTDFTLTISSLQPEDFATYFCQQADSHPRTFGQGTKLEIK", "values": [{"measurement": "Binding Signal", "setting": "human TREM2 [1]", "value": "0.94 fold over 6E7 parental antibody"}, {"measurement": "Binding Signal", "setting": "human TREM2 [2]", "value": "1.46 fold over 6E7 parental antibody"}, {"measurement": "Binding Signal", "setting": "human TREM2 [3]", "value": "1.33 fold over 6E7 parental antibody"}]}]}
